Measurements from US6699662B1, “Inhibitors of staphylococcus SarA protein function involved in the expression of staphylococcal virulence factors and the use thereof in treating staphylococcal infections” (priority 1999, dated 2004).

Tested on: P2-P3 promoter region
Test: DNase I footprinting of SarA binding to the agr regulatory region
Design: species or system Staphylococcus aureus
Details: 40 pM 32P-labeled DNA; regions A1, A2, B1, B2, C1, C2
Experimental: To test this notion and identify binding sites for SarA in this region, DNase I footprinting was perfomred with the purified SarA. […] The data were quantified by phosphorimaging.
SarA was allowed to bind to the DNA in a reaction mixture containing 40 pM of ^32P-labeled DNA, 10 mM Hepes (pH 7.6), 5 mM MgCl2, 1 mM CaCl2, 1 mM DTT, and 100 mM KCl at room temperature for 30 minutes. An amount of DNase I, which produced approximately 50% non-nicked DNA, was added to the reaction mixture and incubated for 2 minutes. The reaction was quenched by addition of stop solution (80% EtOH, tRNA (1 ug/ml), 0.3 M NH4OAc) and immediately put into a dry ice/EtOH bath for 30 minutes. A visible pellet was obtained after centrifugation and washed with 70% ethanol. Following denaturing gel electrophoresis, the DNA fragments were detected and quantified by phosphoimaging. The radioactivity in the bands for samples containing SarA was subtracted from the no protein control using Microsoft Excel. The concentration of SarA required to protect a cleavage site fully was determined. To identify the regions of protection within the inter-promoter region, purine sequencing was included in the analysis. Chemical sequencing was done according to standard procedures.

B1: SarA: purified full-length recombinant S. aureus (strain DB) SarA protein expressed in E. coli (protein)
chain: AITKINDCFELLSMVTYADKLKSLIKKEFSSISFEEFAVLTYISENKEKEYYLKDIINHLNYKQPQVVKAVKILSQEDYDKKRNEHDERTVLILVNAQQRKKIESLLSRVNKRITEANNEIEL
- SarA concentration at which the footprinted regions were protected by more than 50%: 3 to 6 pM
